According to paper PMC5578738 (eLife, 2017):

Target: T1, Side-VI (CG34114) complete ectodomain, biotinylated (SPR) (Drosophila melanogaster, UniProt Q0KI85 1-1087, biotin on the biotin acceptor peptide (E. coli BirA))
T1 construct: Side-VI (CG34114), Drosophila, complete ectodomain; source: Trichoplusia ni High Five cells, baculovirus, secreted, purified (Ni-NTA, SEC)
T1 sequence (looked up): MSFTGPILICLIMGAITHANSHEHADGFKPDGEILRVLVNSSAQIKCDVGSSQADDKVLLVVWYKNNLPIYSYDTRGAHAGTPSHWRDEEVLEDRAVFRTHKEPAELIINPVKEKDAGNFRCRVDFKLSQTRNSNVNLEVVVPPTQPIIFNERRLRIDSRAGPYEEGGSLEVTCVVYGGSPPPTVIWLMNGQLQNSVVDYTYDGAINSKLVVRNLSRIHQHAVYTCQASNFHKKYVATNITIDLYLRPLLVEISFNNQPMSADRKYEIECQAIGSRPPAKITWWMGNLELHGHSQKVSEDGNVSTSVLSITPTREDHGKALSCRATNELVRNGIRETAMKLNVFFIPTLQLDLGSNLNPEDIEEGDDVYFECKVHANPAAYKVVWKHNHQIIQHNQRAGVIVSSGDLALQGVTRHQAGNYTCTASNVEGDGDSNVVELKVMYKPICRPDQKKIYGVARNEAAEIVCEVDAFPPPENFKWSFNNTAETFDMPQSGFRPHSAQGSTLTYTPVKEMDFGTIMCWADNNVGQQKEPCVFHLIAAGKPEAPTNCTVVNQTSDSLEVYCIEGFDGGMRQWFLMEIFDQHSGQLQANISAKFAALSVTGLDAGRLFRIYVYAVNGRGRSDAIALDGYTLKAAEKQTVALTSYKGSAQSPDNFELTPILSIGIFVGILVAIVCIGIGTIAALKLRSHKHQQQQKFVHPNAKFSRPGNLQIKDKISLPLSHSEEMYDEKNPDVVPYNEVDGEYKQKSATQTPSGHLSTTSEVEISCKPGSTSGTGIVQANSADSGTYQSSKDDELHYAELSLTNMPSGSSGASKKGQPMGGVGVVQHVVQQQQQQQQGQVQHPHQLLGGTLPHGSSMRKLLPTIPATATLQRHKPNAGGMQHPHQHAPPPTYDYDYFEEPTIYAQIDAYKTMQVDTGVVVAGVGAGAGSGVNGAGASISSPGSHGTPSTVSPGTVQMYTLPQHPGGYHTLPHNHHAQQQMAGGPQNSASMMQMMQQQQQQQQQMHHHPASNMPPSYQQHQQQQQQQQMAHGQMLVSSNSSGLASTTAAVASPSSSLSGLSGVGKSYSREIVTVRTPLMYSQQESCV
Assay: SPR; Biacore T100; biotinylated Side-VI captured on an SA chip, Beat-Va or Beat-Vb flowed over; HBSp+ with 500 mM NaCl and 15% glycerol; equilibrium responses fitted to a Langmuir isotherm
Conditions: both partners purified

Kd: 760 nM
koff: ≥ 0.5 s⁻¹
B1: Beat-Va complete ectodomain (SPR) (domain or fragment)
chain: LFVTDISVPEIVDFRDNVTLSCSYDMRGHTLNSVKWYKDHEEFFRYSPLTSPIYMTFDVAGLQVLEGKYVCNESSCRLDLSLQGAKSTGLYKCEVSGDAPHFKLADKADNMTVAALPQNDPLIESFNSMYRMEEYLKATCISDFSSLPTRLTWYINGEQPLLGELYPTTDTSLAAHDYVLRRQRLQVQFFLQGQRFFQAGKILELKCVAEIENYPELRREKTLSASLSQYDNFNNQMPLRHANANSGSAQRSILCGRTSLISAFLAAILLIHCLRRPS
